In general, pKd refers to −log10 of the Kd, conventionally taken in molar units. Higher therefore signals a small Kd.

pKd: −log10 of the molar value.

From publication PMC7474084 come the findings set out here.

In the experiment the target is Echovirus 30 (E30) mature virion (F-particle) (Echovirus 30). The experiment can be described thus: SPR; BIAcore T100; […]; PBS with 0.05% Tween-20, 25 °C; global fit.

In the case of “human CD55, extracellular domain (receptor)”, the pKd was 5.70.

On to “human FcRn, extracellular domain (from UniProt P55899 24-297; P61769 21-119) (receptor)”, for which the pKd is 5.70.
